Experimental data as given in US20250171562A1 (ALK ABELL, published 2025).

Target: T1, recombinant human IgE (human, UniProt P01854-1 1-428)
T1 construct: made in-house (ALK); preloaded on immobilised FcεRIα in the displacement ELISA
Experiment: IgE-FcεRIα displacement ELISA
Protocol: The displacement effect was tested using IgE-FcεRIα displacement ELISA assay. Maxisorp® microtiter plates (Thermo Scientific Nunc, Roskilde, Denmark) were coated with 100 μl streptavidin, 5 μg/ml (Thermo Scientific, Waltham, MA) for 18 h at 4° C. followed by wash with 300 μl washing buffer (PBS containing 0.05% Tween 20) using an AquaMax® 2000 plate washer (Molecular Devices, San Jose, CA). Remaining binding sites were blocked with 250 μl blocking buffer (PBS containing 2% BSA) for 2 h and washed with 300 μl washing buffer. Subsequently, the bound streptavidin was loaded with 100 μl (0.1 μg/ml) recombinant human FcεRIα (site specific biotinylated via avi-tag, made in-house, ALK, Hørsholm, Denmark) for 1 h and plates washed twice with 300 μl washing buffer. The bound receptor was then loaded with 100 μl recombinant human IgE (made in-house, ALK, Hørsholm, Denmark), 13 ng/ml (pre-titrated to reach an OD₄₅₀ signal in the range of 1.5-2.5 in the absence of displacement components) for 1h followed by three washes of 300 μl washing buffer.
displacement step: 100 μl sdAbs diluted in concentration series (pM-μM range) or blocking buffer only as a non-displacement negative control, were added to the ELISA wells and incubated for 1 h. Any IgE, displaced from the receptor by a sdAb was washed away by three washes of 300 μl washing buffer.
The ability of the various sdAbs to displace IgE from the receptor (FcεRIα) was evaluated by use of the ELISA based IgE-FcεRIα displacement assay. The percent displacement effect was calculated as the relative reduction in signal compared to the control with no sdAb added. The EC₅₀ values and the maximal effects were determined (table 15).

T1 sequence (P01854 other isoform, or with tags, fused parts or gaps): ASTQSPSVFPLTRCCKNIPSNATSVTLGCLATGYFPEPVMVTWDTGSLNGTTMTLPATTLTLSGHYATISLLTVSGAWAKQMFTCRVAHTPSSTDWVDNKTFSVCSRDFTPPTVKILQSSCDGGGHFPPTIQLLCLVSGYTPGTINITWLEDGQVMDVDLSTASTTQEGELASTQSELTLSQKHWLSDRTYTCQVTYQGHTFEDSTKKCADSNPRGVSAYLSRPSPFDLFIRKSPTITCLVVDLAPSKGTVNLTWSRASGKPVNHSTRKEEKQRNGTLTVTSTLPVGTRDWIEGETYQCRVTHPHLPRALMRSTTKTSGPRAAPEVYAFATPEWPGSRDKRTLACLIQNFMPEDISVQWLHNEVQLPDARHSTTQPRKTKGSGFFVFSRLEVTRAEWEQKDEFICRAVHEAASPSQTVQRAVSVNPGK

Binder | Max effect [%] | EC50 [nM]
NIgG4B1A2(G4S)1 (Fc fusion) chain 1: QVQLQESGGGLVQTGGSLRLSCAVHGRTFSNTGMGWFRQAPGNERQFVAIISPSGTSTYYADSVKGRFTISRDPAKNTVYLQMNSLKMDDTAVYYCAASYGSNWSTLRHQRRNEYDAWGQGTQVAVSGGGGSGPPCPPCPAPEFLGGPSVFLFPPKPKDTLMISRTPEVTCVVVDVSQEDPEVQFNWYVDGVEVHNAKTKPREEQFNSTYRVVSVLTVLHQDWLNGKEYKCKVSNKGLPSSIEKTISKAKGQPREPQVYTLPPCQEEMTKNQVSLWCLVKGFYPSDIAVEWESNGQPENNYKTTPPVLDSDGSFFLYSRLTVDKSRWQEGNVFSCSVMHEALHNHYTQKSLSLSLGK chain 2: EVQLLESGGGLVQPGGSLRLSCAASGFRFGNYDMAWVRQAPGKRYEWVSSIDTGGDITHYADSVKGRFTISRDNAKNTLYLQMNSLRPEDTAEYWCATDEEYALGPNEFDYYGQGTLVTVSGGGGSGPPCPPCPAPEFLGGPSVFLFPPKPKDTLMISRTPEVTCVVVDVSQEDPEVQFNWYVDGVEVHNAKTKPREEQFNSTYRVVSVLTVLHQDWLNGKEYKCKVSNKGLPSSIEKTISKAKGQPREPQVCTLPPSQEEMTKNQVSLSCAVKGFYPSDIAVEWESNGQPENNYKTTPPVLDSDGSFFLVSRLTVDKSRWQEGNVFSCSVMHEALHNHYTQKSLSLSLGK | > 95 | –
NIgG4A1A1(G4S)3 (Fc fusion) chain 1: EVQLLESGGGLVQPGGSLRLSCAASGFTFGNYDMAWVRQAPGKRPEWVSSIDTGGDITHYADSVKGRFTISRDNAKNTLYLQMNSLRPEDTAVYWCATDEEYALGPNEFDYYGQGTLVTVSSGGGGSGGGGSGGGGSGPPCPPCPAPEFLGGPSVFLFPPKPKDTLMISRTPEVTCVVVDVSQEDPEVQFNWYVDGVEVHNAKTKPREEQFNSTYRVVSVLTVLHQDWLNGKEYKCKVSNKGLPSSIEKTISKAKGQPREPQVYTLPPCQEEMTKNQVSLWCLVKGFYPSDIAVEWESNGQPENNYKTTPPVLDSDGSFFLYSRLTVDKSRWQEGNVFSCSVMHEALHNHYTQKSLSLSLGK chain 2: EVQLLESGGGLVQPGGSLRLSCAASGFTFGNYDMAWVRQAPGKRPEWVSSIDTGGDITHYADSVKGRFTISRDNAKNTLYLQMNSLRPEDTAVYWCATDEEYALGPNEFDYYGQGTLVTVSSGGGGSGGGGSGGGGSGPPCPPCPAPEFLGGPSVFLFPPKPKDTLMISRTPEVTCVVVDVSQEDPEVQFNWYVDGVEVHNAKTKPREEQFNSTYRVVSVLTVLHQDWLNGKEYKCKVSNKGLPSSIEKTISKAKGQPREPQVCTLPPSQEEMTKNQVSLSCAVKGFYPSDIAVEWESNGQPENNYKTTPPVLDSDGSFFLVSRLTVDKSRWQEGNVFSCSVMHEALHNHYTQKSLSLSLGK | – | 310
NIgG4B1A2(RS) (Fc fusion) chain 1: QVQLQESGGGLVQTGGSLRLSCAVHGRTFSNTGMGWFRQAPGNERQFVAIISPSGTSTYYADSVKGRFTISRDPAKNTVYLQMNSLKMDDTAVYYCAASYGSNWSTLRHQRRNEYDAWGQGTQVAVSRSGPPCPPCPAPEFLGGPSVFLFPPKPKDTLMISRTPEVTCVVVDVSQEDPEVQFNWYVDGVEVHNAKTKPREEQFNSTYRVVSVLTVLHQDWLNGKEYKCKVSNKGLPSSIEKTISKAKGQPREPQVYTLPPCQEEMTKNQVSLWCLVKGFYPSDIAVEWESNGQPENNYKTTPPVLDSDGSFFLYSRLTVDKSRWQEGNVFSCSVMHEALHNHYTQKSLSLSLGK chain 2: EVQLLESGGGLVQPGGSLRLSCAASGFRFGNYDMAWVRQAPGKRYEWVSSIDTGGDITHYADSVKGRFTISRDNAKNTLYLQMNSLRPEDTAEYWCATDEEYALGPNEFDYYGQGTLVTVSRSGPPCPPCPAPEFLGGPSVFLFPPKPKDTLMISRTPEVTCVVVDVSQEDPEVQFNWYVDGVEVHNAKTKPREEQFNSTYRVVSVLTVLHQDWLNGKEYKCKVSNKGLPSSIEKTISKAKGQPREPQVCTLPPSQEEMTKNQVSLSCAVKGFYPSDIAVEWESNGQPENNYKTTPPVLDSDGSFFLVSRLTVDKSRWQEGNVFSCSVMHEALHNHYTQKSLSLSLGK | > 95 | –

Next, values leading:

Max effect [%] | EC50 [nM] | Binder
~40 | – | CIgE4A1A1(GS)1 (Fc fusion, label printed with IgE4/(GS); also called CIgG4A1A1(G4S)1) chain 1: GPPCPPCPAPEFLGGPSVFLFPPKPKDTLMISRTPEVTCVVVDVSQEDPEVQFNWYVDGVEVHNAKTKPREEQFNSTYRVVSVLTVLHQDWLNGKEYKCKVSNKGLPSSIEKTISKAKGQPREPQVYTLPPCQEEMTKNQVSLWCLVKGFYPSDIAVEWESNGQPENNYKTTPPVLDSDGSFFLYSRLTVDKSRWQEGNVFSCSVMHEALHNHYTQKSLSLSLGKGGGGSEVQLLESGGGLVQPGGSLRLSCAASGFTFGNYDMAWVRQAPGKRPEWVSSIDTGGDITHYADSVKGRFTISRDNAKNTLYLQMNSLRPEDTAVYWCATDEEYALGPNEFDYYGQGTLVTVSS chain 2: GPPCPPCPAPEFLGGPSVFLFPPKPKDTLMISRTPEVTCVVVDVSQEDPEVQFNWYVDGVEVHNAKTKPREEQFNSTYRVVSVLTVLHQDWLNGKEYKCKVSNKGLPSSIEKTISKAKGQPREPQVCTLPPSQEEMTKNQVSLSCAVKGFYPSDIAVEWESNGQPENNYKTTPPVLDSDGSFFLVSRLTVDKSRWQEGNVFSCSVMHEALHNHYTQKSLSLSLGKGGGGSEVQLLESGGGLVQPGGSLRLSCAASGFTFGNYDMAWVRQAPGKRPEWVSSIDTGGDITHYADSVKGRFTISRDNAKNTLYLQMNSLRPEDTAVYWCATDEEYALGPNEFDYYGQGTLVTVSS
~70 | 145 | CIgE4A1A1(GS)2 (Fc fusion, also called CIgG4A1A1(G4S)2) chain 1: GPPCPPCPAPEFLGGPSVFLFPPKPKDTLMISRTPEVTCVVVDVSQEDPEVQFNWYVDGVEVHNAKTKPREEQFNSTYRVVSVLTVLHQDWLNGKEYKCKVSNKGLPSSIEKTISKAKGQPREPQVYTLPPCQEEMTKNQVSLWCLVKGFYPSDIAVEWESNGQPENNYKTTPPVLDSDGSFFLYSRLTVDKSRWQEGNVFSCSVMHEALHNHYTQKSLSLSLGKGGGGSGGGGSEVQLLESGGGLVQPGGSLRLSCAASGFTFGNYDMAWVRQAPGKRPEWVSSIDTGGDITHYADSVKGRFTISRDNAKNTLYLQMNSLRPEDTAVYWCATDEEYALGPNEFDYYGQGTLVTVSS chain 2: GPPCPPCPAPEFLGGPSVFLFPPKPKDTLMISRTPEVTCVVVDVSQEDPEVQFNWYVDGVEVHNAKTKPREEQFNSTYRVVSVLTVLHQDWLNGKEYKCKVSNKGLPSSIEKTISKAKGQPREPQVCTLPPSQEEMTKNQVSLSCAVKGFYPSDIAVEWESNGQPENNYKTTPPVLDSDGSFFLVSRLTVDKSRWQEGNVFSCSVMHEALHNHYTQKSLSLSLGKGGGGSGGGGSEVQLLESGGGLVQPGGSLRLSCAASGFTFGNYDMAWVRQAPGKRPEWVSSIDTGGDITHYADSVKGRFTISRDNAKNTLYLQMNSLRPEDTAVYWCATDEEYALGPNEFDYYGQGTLVTVSS
< 20 | – | CIgG4A1A1(RS) (Fc fusion) chain 1: GPPCPPCPAPEFLGGPSVFLFPPKPKDTLMISRTPEVTCVVVDVSQEDPEVQFNWYVDGVEVHNAKTKPREEQFNSTYRVVSVLTVLHQDWLNGKEYKCKVSNKGLPSSIEKTISKAKGQPREPQVYTLPPCQEEMTKNQVSLWCLVKGFYPSDIAVEWESNGQPENNYKTTPPVLDSDGSFFLYSRLTVDKSRWQEGNVFSCSVMHEALHNHYTQKSLSLSLGKRSEVQLLESGGGLVQPGGSLRLSCAASGFTFGNYDMAWVRQAPGKRPEWVSSIDTGGDITHYADSVKGRFTISRDNAKNTLYLQMNSLRPEDTAVYWCATDEEYALGPNEFDYYGQGTLVTVSS chain 2: GPPCPPCPAPEFLGGPSVFLFPPKPKDTLMISRTPEVTCVVVDVSQEDPEVQFNWYVDGVEVHNAKTKPREEQFNSTYRVVSVLTVLHQDWLNGKEYKCKVSNKGLPSSIEKTISKAKGQPREPQVCTLPPSQEEMTKNQVSLSCAVKGFYPSDIAVEWESNGQPENNYKTTPPVLDSDGSFFLVSRLTVDKSRWQEGNVFSCSVMHEALHNHYTQKSLSLSLGKRSEVQLLESGGGLVQPGGSLRLSCAASGFTFGNYDMAWVRQAPGKRPEWVSSIDTGGDITHYADSVKGRFTISRDNAKNTLYLQMNSLRPEDTAVYWCATDEEYALGPNEFDYYGQGTLVTVSS
~85 | 36 | CIgE4A1A1(GS3) (Fc fusion, also called CIgG4A1A1(G4S)3) chain 1: GPPCPPCPAPEFLGGPSVFLFPPKPKDTLMISRTPEVTCVVVDVSQEDPEVQFNWYVDGVEVHNAKTKPREEQFNSTYRVVSVLTVLHQDWLNGKEYKCKVSNKGLPSSIEKTISKAKGQPREPQVYTLPPCQEEMTKNQVSLWCLVKGFYPSDIAVEWESNGQPENNYKTTPPVLDSDGSFFLYSRLTVDKSRWQEGNVFSCSVMHEALHNHYTQKSLSLSLGKGGGGSGGGGSGGGGSEVQLLESGGGLVQPGGSLRLSCAASGFTFGNYDMAWVRQAPGKRPEWVSSIDTGGDITHYADSVKGRFTISRDNAKNTLYLQMNSLRPEDTAVYWCATDEEYALGPNEFDYYGQGTLVTVSS chain 2: GPPCPPCPAPEFLGGPSVFLFPPKPKDTLMISRTPEVTCVVVDVSQEDPEVQFNWYVDGVEVHNAKTKPREEQFNSTYRVVSVLTVLHQDWLNGKEYKCKVSNKGLPSSIEKTISKAKGQPREPQVCTLPPSQEEMTKNQVSLSCAVKGFYPSDIAVEWESNGQPENNYKTTPPVLDSDGSFFLVSRLTVDKSRWQEGNVFSCSVMHEALHNHYTQKSLSLSLGKGGGGSGGGGSGGGGSEVQLLESGGGLVQPGGSLRLSCAASGFTFGNYDMAWVRQAPGKRPEWVSSIDTGGDITHYADSVKGRFTISRDNAKNTLYLQMNSLRPEDTAVYWCATDEEYALGPNEFDYYGQGTLVTVSS
